Measured values reported in patent publication US20220153835A1.

How the values were obtained:
[1] = molecular target: LAG-3-huIgG1 Fc fusion protein; assay: competition binding assay, LAG-3-Ig on Raji cells
[2] = molecular target: LAG-3 expressed on cells (species not stated at the experiment) (human) (UniProt P18627)

B1: murine anti-LAG-3 mAb BAP050 (antibody, V domains shown)
VH: QIQLVQSGPELKKPGETVKISCKASGFTLTNYGMNWVRQTPGKGLKWMGWINTDTGEPTYADDFKGRFAFSLETSASTASLQINNLKNADTATYFCARNPPYYYGTNNAEAMDYWGQGTAVTVSS
VL: DIQMTQTTSSLSASLGDRVTISCSSSQDISNYLNWYQQKPDGTVKVLIYYTSTLHLGVPSRFSGSGSGTDYSLTISNLELEDIATYYCQQYYNLPWTFGGGTKLEIK
With B1 the IC50 [1] was 2.3 nM, the IFN-γ expression, cells stimulated with CMV peptides (fold increase) [2] was 1.4 and the IFN-γ expression, cells stimulated with Staphylococcal enterotoxin B (SEB) (3 µg/mL) (fold increase) [2] was 1.6. The IFN-γ expression, cells stimulated with anti-CD3 (0.1 µg/mL) (fold increase) [2] was 3.
